{"source": "the RNAGym collection of RNA variant scans (doi:10.7554/elife.80360)", "parents": {"B1": {"name": "Hammerhead Ribozyme (parent)", "chain": "ACCGGAUGUGCUUUCCGGUCUGAUGAGUCCGUGAGGACGAAACAG"}}}
{"variants_of": "B1", "experiment": "self-cleavage, relative activity (ratio to wild type); higher = more cleavage; co-transcriptional"}
{"variant": "G4A G45A", "self-cleavage": 0.348}
{"variant": "G4A G45C", "self-cleavage": 0.393}
{"variant": "G4A G45U", "self-cleavage": 0.418}
{"variant": "G4C A26G", "self-cleavage": 0.276}
{"variant": "G4C A26C", "self-cleavage": 0.289}
{"variant": "G4C A26U", "self-cleavage": 0.427}
{"variant": "C3U U14A", "self-cleavage": 0.71}
{"variant": "C3U U14C", "self-cleavage": 0.669}
{"variant": "C3U U14G", "self-cleavage": 0.78}
{"variant": "G4A U32G", "self-cleavage": 0.436}
{"variant": "G4A U32C", "self-cleavage": 0.516}
{"variant": "G4A U32A", "self-cleavage": 0.579}
{"variant": "G4A G36A", "self-cleavage": 0.367}
{"variant": "G4A G36U", "self-cleavage": 0.37}
{"variant": "G4A G36C", "self-cleavage": 0.343}
{"variant": "G4A G25C", "self-cleavage": 0.32}
{"variant": "G4A G25U", "self-cleavage": 0.316}
{"variant": "G4A G25A", "self-cleavage": 0.313}
{"variant": "G4A", "self-cleavage": 0.602}
{"variant": "G4C", "self-cleavage": 0.784}
{"variant": "C3U U13G", "self-cleavage": 0.866}
{"variant": "C3U U13C", "self-cleavage": 1.33}
{"variant": "C3U U13A", "self-cleavage": 1.1}
{"variant": "G4A U9C", "self-cleavage": 0.47}
{"variant": "G4A U9A", "self-cleavage": 0.458}
{"variant": "G4A U9G", "self-cleavage": 0.423}
{"variant": "G4A U19C", "self-cleavage": 0.276}
{"variant": "G4A U19G", "self-cleavage": 0.238}
{"variant": "G4A U19A", "self-cleavage": 0.353}
{"variant": "G4A U14G", "self-cleavage": 0.542}
{"variant": "G4A U14C", "self-cleavage": 0.404}
{"variant": "G4A U14A", "self-cleavage": 0.49}
{"variant": "G4A G31A", "self-cleavage": 0.641}
{"variant": "G4A G31U", "self-cleavage": 0.678}
{"variant": "G4A G31C", "self-cleavage": 0.594}
{"variant": "G4A A44U", "self-cleavage": 0.435}
{"variant": "G4A A44C", "self-cleavage": 0.388}
{"variant": "G4A A44G", "self-cleavage": 0.84}
{"variant": "C3U U9A", "self-cleavage": 1.03}
{"variant": "C3U U9G", "self-cleavage": 0.657}
{"variant": "C3U U9C", "self-cleavage": 1.08}
{"variant": "G4A C20A", "self-cleavage": 0.402}
{"variant": "G4A C20G", "self-cleavage": 0.334}
{"variant": "G4A C20U", "self-cleavage": 0.358}
{"variant": "G4A C15G", "self-cleavage": 0.419}
{"variant": "G4A C15A", "self-cleavage": 0.443}
{"variant": "G4A C15U", "self-cleavage": 0.532}
{"variant": "G4A G10A", "self-cleavage": 0.866}
{"variant": "G4A G10C", "self-cleavage": 0.414}
{"variant": "G4A G10U", "self-cleavage": 0.734}
{"variant": "G4A C11A", "self-cleavage": 0.62}
{"variant": "G4A C11U", "self-cleavage": 0.389}
{"variant": "G4A C11G", "self-cleavage": 0.539}
{"variant": "G4A U24G", "self-cleavage": 0.546}
{"variant": "G4A U24A", "self-cleavage": 0.682}
{"variant": "G4A U24C", "self-cleavage": 0.59}
{"variant": "G4A G22C", "self-cleavage": 0.354}
{"variant": "G4A G22A", "self-cleavage": 0.281}
{"variant": "G4A G22U", "self-cleavage": 0.302}
{"variant": "G4A U13A", "self-cleavage": 1.01}
{"variant": "G4A U13C", "self-cleavage": 0.824}
{"variant": "G4A U13G", "self-cleavage": 0.616}
{"variant": "G4A A40U", "self-cleavage": 0.325}
{"variant": "G4A A40C", "self-cleavage": 0.359}
{"variant": "G4A A40G", "self-cleavage": 0.379}
{"variant": "G4A A34U", "self-cleavage": 0.49}
{"variant": "G4A A34C", "self-cleavage": 0.35}
{"variant": "G4A A34G", "self-cleavage": 0.378}
{"variant": "C3U U19A", "self-cleavage": 0.385}
{"variant": "C3U U19G", "self-cleavage": 0.38}
{"variant": "C3U U19C", "self-cleavage": 0.539}
{"variant": "G4A C16U", "self-cleavage": 0.781}
{"variant": "G4A C16A", "self-cleavage": 0.907}
{"variant": "G4A C16G", "self-cleavage": 0.977}
{"variant": "G4A C29U", "self-cleavage": 0.543}
{"variant": "G4A C29A", "self-cleavage": 0.374}
{"variant": "G4A C29G", "self-cleavage": 0.357}
{"variant": "G4A C38G", "self-cleavage": 0.344}
{"variant": "G4A C38U", "self-cleavage": 0.453}
{"variant": "G4A C38A", "self-cleavage": 0.373}
{"variant": "G4A U21G", "self-cleavage": 0.374}
{"variant": "G4A U21C", "self-cleavage": 0.373}
{"variant": "G4A U21A", "self-cleavage": 0.312}
{"variant": "G4A A42C", "self-cleavage": 0.335}
{"variant": "G4A A42U", "self-cleavage": 0.319}
{"variant": "G4A A42G", "self-cleavage": 0.341}
{"variant": "G4A G35C", "self-cleavage": 0.391}
{"variant": "G4A G35A", "self-cleavage": 0.386}
{"variant": "G4A G35U", "self-cleavage": 0.382}
{"variant": "G4A G27U", "self-cleavage": 0.366}
{"variant": "G4A G27A", "self-cleavage": 0.332}
{"variant": "G4A G27C", "self-cleavage": 0.297}
{"variant": "G4A G8A", "self-cleavage": 0.555}
{"variant": "G4A G8U", "self-cleavage": 0.696}
{"variant": "G4A G8C", "self-cleavage": 0.46}
{"variant": "C3U U24C", "self-cleavage": 0.956}
{"variant": "C3U U24G", "self-cleavage": 0.945}
{"variant": "C3U U24A", "self-cleavage": 1.24}
{"variant": "G4C A23C", "self-cleavage": 0.299}
{"variant": "G4C A23G", "self-cleavage": 0.225}
{"variant": "G4C A23U", "self-cleavage": 0.314}
{"variant": "G4C A6U", "self-cleavage": 0.281}
{"variant": "G4C A6C", "self-cleavage": 0.251}
{"variant": "G4C A6G", "self-cleavage": 0.358}
{"variant": "G4C A37C", "self-cleavage": 0.328}
{"variant": "G4C A37U", "self-cleavage": 0.294}
{"variant": "G4C A37G", "self-cleavage": 0.516}
{"variant": "G4C A34U", "self-cleavage": 0.585}
{"variant": "G4C A34G", "self-cleavage": 0.596}
{"variant": "G4C A34C", "self-cleavage": 0.679}
{"variant": "G4A C43G", "self-cleavage": 0.29}
{"variant": "G4A C43U", "self-cleavage": 0.271}
{"variant": "G4A C43A", "self-cleavage": 0.313}
{"variant": "G4A A6C", "self-cleavage": 0.232}
{"variant": "G4A A6G", "self-cleavage": 0.355}
{"variant": "G4A A6U", "self-cleavage": 0.377}
{"variant": "G4A C30A", "self-cleavage": 0.379}
{"variant": "G4A C30U", "self-cleavage": 0.526}
{"variant": "G4A C30G", "self-cleavage": 0.368}
{"variant": "G4A U7G", "self-cleavage": 0.335}
{"variant": "G4A U7C", "self-cleavage": 0.294}
{"variant": "G4A U7A", "self-cleavage": 0.538}
{"variant": "C3U U32C", "self-cleavage": 0.962}
{"variant": "C3U U32G", "self-cleavage": 0.452}
{"variant": "C3U U32A", "self-cleavage": 0.95}
{"variant": "C3U U12G", "self-cleavage": 0.843}
{"variant": "C3U U12C", "self-cleavage": 0.99}
{"variant": "C3U U12A", "self-cleavage": 1.04}
{"variant": "G4A G18C", "self-cleavage": 0.333}
{"variant": "G4A G18A", "self-cleavage": 0.372}
{"variant": "G4A G18U", "self-cleavage": 0.323}
{"variant": "G4A A26G", "self-cleavage": 0.35}
{"variant": "G4A A26C", "self-cleavage": 0.302}
{"variant": "G4A A26U", "self-cleavage": 0.472}
{"variant": "G4A G5C", "self-cleavage": 0.365}
{"variant": "G4A G5U", "self-cleavage": 0.398}
{"variant": "G4A G5A", "self-cleavage": 0.54}
{"variant": "G4A A41U", "self-cleavage": 0.382}
{"variant": "G4A A41C", "self-cleavage": 0.34}
{"variant": "G4A A41G", "self-cleavage": 0.287}
{"variant": "C3U U28G", "self-cleavage": 0.505}
{"variant": "C3U U28A", "self-cleavage": 0.448}
{"variant": "C3U U28C", "self-cleavage": 0.854}
{"variant": "G4A A37G", "self-cleavage": 0.391}
{"variant": "G4A A37U", "self-cleavage": 0.378}
{"variant": "G4A A37C", "self-cleavage": 0.491}
{"variant": "G4A U28C", "self-cleavage": 0.306}
{"variant": "G4A U28G", "self-cleavage": 0.341}
{"variant": "G4A U28A", "self-cleavage": 0.364}
{"variant": "G4A G39U", "self-cleavage": 0.26}
{"variant": "G4A G39C", "self-cleavage": 0.319}
{"variant": "G4A G39A", "self-cleavage": 0.353}
{"variant": "G4A G33U", "self-cleavage": 0.597}
{"variant": "G4A G33A", "self-cleavage": 0.55}
{"variant": "G4A G33C", "self-cleavage": 0.549}
{"variant": "G4A A23G", "self-cleavage": 0.272}
{"variant": "G4A A23U", "self-cleavage": 0.356}
{"variant": "G4A A23C", "self-cleavage": 0.337}
{"variant": "G4A G17C", "self-cleavage": 0.399}
{"variant": "G4A G17A", "self-cleavage": 0.337}
{"variant": "G4A G17U", "self-cleavage": 0.39}
{"variant": "G4A U12G", "self-cleavage": 0.541}
{"variant": "G4A U12C", "self-cleavage": 0.305}
{"variant": "G4A U12A", "self-cleavage": 0.589}
{"variant": "C3U U21A", "self-cleavage": 0.747}
{"variant": "C3U U21C", "self-cleavage": 0.731}
{"variant": "C3U U21G", "self-cleavage": 0.558}
